Experimental data published in PMC4154877, “Mouse, but Not Human, ApoB-100 Lipoprotein Cholesterol Is a Potent Innate Inhibitor of Streptococcus pneumoniae Pneumolysin” (PLoS Pathogens, 2014).
Numbering of substitutions follows the chain as printed. Names may count otherwise.

B1: pre-pore locked pneumolysin with Cys-117, labelled with Alexa Fluor 488 or 568 (PLY^PPL D117C) (natural protein, Streptococcus pneumoniae, UniProt P0C2J9 1-471, looked up)
chain: MANKAVNDFILAMNYDKKKLLTHQCESIENRFIKEGNQLPDEFVVIERKKRSLSTNTSDISVTATNDSRLYPGALLVVDETLLENNPTLLAVDRAPMTYSIDLPGLASSDSFLQVECPSNSSVRGAVNDLLAKWHQDYGQVNNVPARMQYEKITAHSMCQLKVKFGSDFEKTGNSLDIDFNSVHSGEKQIQIVNFKQIYYTVSVDAVKNPGDVFQDTVTVEDLKQRGISAERPLVYISSVAYGRQVYLKLETTSKSDEVEAAFEALIKGVKVAPQTEWKQILDNTEVKAVILGGDPSSGARVVTGKVDMVEDLIQEGSRFTADHPGLPISYTTSFLRDNVVATFQNSTDYVETKVTAYRNGDLLLDHSGAYVAQYYITWNELSYDHQGKEVLTPKAWDRNGQDLTAHFTTSIPLKGNVRNLSVKIREATGLAWEWWRTVYEKTDLPLVRKRTISIWGTTLYPQVEDKVEND
modifications: Alexa Fluor 488 (donor) or Alexa Fluor 568 (acceptor) on the sulfhydryl of Cys-117; disulfide between cysteine-substituted Gly-25 and Glu-159
notes: Donor-labelled protein was mixed with acceptor-labelled or unlabelled (U) protein in the FRET assay; also called D labeled PLY^PPL; A labeled PLY^PPL; source: E. coli Tuner cells, purified
B2: pre-pore locked pneumolysin (PLY^PPL) (natural protein)
chain: B1 chain with C117D
modifications: disulfide between cysteine-substituted Gly-25 and Glu-159
notes: pneumolysin (PLY) of Streptococcus pneumoniae, codon-optimised gene in pET-15b (NdeI/BamHI); cysteine-less background (Cys-428 to Ala) with a disulfide between Cys-25 and Cys-159; also called prepore locked version of PLY; source: E. coli Tuner cells, purified

Tests used:
[1] = target: the molecule itself; assay: FRET or BRET
[2] = target: the molecule itself; assay: SDS-agarose gel electrophoresis of SDS-resistant oligomer, immunoblot; PLY^PPL incubated with mouse or human serum diluted 1:2 to 1:40 in HEPES buffered saline, 37°C, 20 minutes; SDS-AGE (1.5%), blot probed with rabbit anti-PLY serum

Protein	binding result [1]	binding result [2]
B1	binds	–
B2	–	binds
